This data set has as its system Escherichia coli TOP10. The experiment in a line: shrunken log2 fold change of peptide-encoding DNA abundance (4.5 h post-induction vs induction); higher = less antimicrobial activity (less host growth inhibition). The following applies: time post-induction: 4.5 h; library: site-saturation at positions 5, 18, 19, 20.

This is an account of results in the supplement of paper PMC9112550, “Optimization of the antimicrobial peptide Bac7 by deep mutational scanning” (BMC Biology, 2022).
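Note: peptides expressed intracellularly from a pBAD plasmid library in pooled LB shake-flask culture, induced with 0.3% L-arabinose, DNA abundance read by NGS, three biological replicates, DESeq2 with apeglm shrinkage.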

For RRIRGRPPRLPRPRPRPAPSPRP, the “shrunken log2 fold change” value is 0.806. Then RRIRWRPPRLPRPRPRPCRVPRP, with 0.103; and RRIRYRPPRLPRPRPRPKEVPRP, with 0.0274; and RRIRTRPPRLPRPRPRPKAFPRP, with -0.149. For the sequence RRIRRRPPRLPRPRPRPIKRPRP, the “shrunken log2 fold change” value stood at 0.156. To RRIRSRPPRLPRPRPRPWFLPRP belongs -0.565; to RRIRPRPPRLPRPRPRPNWRPRP, 0.392; to RRIRNRPPRLPRPRPRPGCGPRP, 0.451.

Consider RRIRWRPPRLPRPRPRPKHLPRP, for which the “shrunken log2 fold change” value was found to be 0.0564. Then RRIRYRPPRLPRPRPRPHHVPRP, with -0.00992; and RRIRFRPPRLPRPRPRPWRYPRP, with -0.161; and RRIRDRPPRLPRPRPRPNIPPRP, with -0.623.

Consider RRIRTRPPRLPRPRPRPDCMPRP, for which the “shrunken log2 fold change” value is -0.137. Then RRIRARPPRLPRPRPRPESRPRP, with 0.147.

Take RRIRQRPPRLPRPRPRPVYSPRP: the “shrunken log2 fold change” value is -0.0563. Then RRIRYRPPRLPRPRPRPIMHPRP, with -0.483; and RRIRYRPPRLPRPRPRPRWVPRP, with -0.0064. In the case of RRIRHRPPRLPRPRPRPEAGPRP, the “shrunken log2 fold change” value amounted to 0.264. Then RRIRPRPPRLPRPRPRPTMHPRP, with 0.0766; and RRIRIRPPRLPRPRPRPDDSPRP, with -0.267; and RRIRIRPPRLPRPRPRPLWHPRP, with -0.105.

Take RRIRLRPPRLPRPRPRPKIVPRP: the “shrunken log2 fold change” value was -0.142. Then RRIRDRPPRLPRPRPRPWICPRP, with -0.298. To RRIRARPPRLPRPRPRPQKYPRP belongs -0.363; to RRIRARPPRLPRPRPRPLLEPRP, 0.834. Then RRIRKRPPRLPRPRPRPWEQPRP, with 0.0133; and RRIRKRPPRLPRPRPRPKQLPRP, with 0.417; and RRIRKRPPRLPRPRPRPRIWPRP, with 0.434. In the case of RRIRYRPPRLPRPRPRPRRRPRP, the “shrunken log2 fold change” value was -0.0051. Then RRIRLRPPRLPRPRPRPRQNPRP, with 0.108; and RRIRHRPPRLPRPRPRPSKMPRP, with -0.858. To RRIRDRPPRLPRPRPRPEGEPRP belongs -0.0124; to RRIRHRPPRLPRPRPRPLLFPRP, -0.364; to RRIRERPPRLPRPRPRPHEIPRP, -0.0168. To RRIRPRPPRLPRPRPRPQGAPRP belongs 0.0965; to RRIRLRPPRLPRPRPRPWNVPRP, -0.0513. Turning to RRIRCRPPRLPRPRPRPKEHPRP, the “shrunken log2 fold change” value was -0.201. To RRIRIRPPRLPRPRPRPGILPRP belongs -0.128. To RRIRGRPPRLPRPRPRPLFWPRP belongs 0.544; to RRIRLRPPRLPRPRPRPMVFPRP, 0.0182; to RRIRARPPRLPRPRPRPGIFPRP, 0.468.

Take RRIRYRPPRLPRPRPRPPAIPRP: the “shrunken log2 fold change” value was -0.319.

RRIRGRPPRLPRPRPRPKKWPRP: the “shrunken log2 fold change” value is -0.00138.

On to RRIRGRPPRLPRPRPRPFECPRP, for which the “shrunken log2 fold change” value worked out at 0.0132. Then RRIRNRPPRLPRPRPRPLRWPRP, with 1.25; and RRIRDRPPRLPRPRPRPMFFPRP, with 0.125; and RRIRARPPRLPRPRPRPTHKPRP, with 0.577. Then RRIRPRPPRLPRPRPRPYMQPRP, with -0.681; and RRIRWRPPRLPRPRPRPPQKPRP, with 0.413; and RRIRSRPPRLPRPRPRPVRLPRP, with 0.196. To RRIRFRPPRLPRPRPRPHMGPRP belongs -0.292; to RRIRLRPPRLPRPRPRPKPVPRP, 0.165. On to RRIRTRPPRLPRPRPRPDAMPRP, for which the “shrunken log2 fold change” value was 0.248.

RRIRRRPPRLPRPRPRPCGQPRP: the “shrunken log2 fold change” value amounted to 0.205. Then RRIRIRPPRLPRPRPRPDPAPRP, with 0.0747; and RRIRQRPPRLPRPRPRPSIVPRP, with -0.323. To RRIRERPPRLPRPRPRPCQHPRP belongs -0.0915; to RRIRKRPPRLPRPRPRPFEYPRP, -0.00133. To RRIRFRPPRLPRPRPRPRYYPRP belongs -0.617; to RRIRYRPPRLPRPRPRPHWRPRP, -0.0836.

In the case of RRIRQRPPRLPRPRPRPASTPRP, the “shrunken log2 fold change” value was -0.0855. Consider RRIRWRPPRLPRPRPRPLYPPRP, for which the “shrunken log2 fold change” value is -0.208. To RRIRPRPPRLPRPRPRPMKHPRP belongs 0.0348.
